According to patent US20210095019A1 (I MAB, published 2021):
Like-named read-outs stand apart in the source and are kept apart here.

B1: CD47 antibody 1F8 (antibody, V domains shown)
VH: KVQLVESGGGLVKPGGSLRLSCAASGFTFSNAWMNWVRQAPGKGLEWVGRIKRKTDGETTDYAAPVKGRFSISRDDSKNTLYLQMNSLKTEDTAVYYCAGSNRAFDIWGQGTMVTVSA
VL: DIVMTQSPDSLAVSLGERATINCKSSQSVLYSSNNRNYLAWYQQKPGQPPKLLINQASTRASGVPDRFSGSGSGTEFTLIISSLHAEDVAIYYCQQYYTPPLAFGGGTKLEIK

Tests used:
[1] = molecular target: primary human AML cells (CD47 on PBMCs of AML patient AML-PB003F) (human) (UniProt Q08722); assay: flow cytometry on primary AML cells (AML-PB003F); concentration not given
[2] = molecular target: primary human AML cells (CD47 on PBMCs of AML patient AML-PB003F) (human) (UniProt Q08722)
[3] = molecular target: human red blood cells (CD47 on RBC) (human) (UniProt Q08722); assay: flow cytometry on human RBCs, Donor 1, antibody 10 ug/mL
[4] = molecular target: human red blood cells (CD47 on RBC) (human) (UniProt Q08722); assay: flow cytometry on human RBCs, Donor 2, antibody 10 ug/mL
[5] = molecular target: human CD47 on Raji cells (human) (UniProt Q08722); assay: flow cytometry on Raji cells, APC anti-human Fc
[6] = molecular target: Recombinant human CD47-Fc fusion protein (Acrobiosystems) (human) (UniProt Q08722); assay: blocking ELISA: SIRPa-His (1 ug/mL) binding to coated CD47-Fc, anti-His HRP
[7] = molecular target: human platelets (CD47 on CD61-positive platelets) (human) (UniProt Q08722); assay: flow cytometry on human whole blood, gated on CD61+ platelets, antibody 10 ug/mL
[8] = molecular target: Recombinant human CD47/mouse Fc fusion protein (Acrobiosystems) (human) (UniProt Q08722); assay: ELISA on coated CD47/mouse Fc fusion protein (1 ug/ml), anti-human Fc HRP
[9] = molecular target: Biotinylated CD47 protein (Acrobiosystems) (human) (UniProt Q08722); assay: ELISA on coated biotinylated CD47 protein (1 ug/mL), anti-human Fc HRP
[10] = molecular target: primary human AML cells (CD47 on PBMCs of AML patient AML-PB003F) (human) (UniProt Q08722); remark: listed apart in the source
[11] = molecular target: human red blood cells (CD47 on RBC) (human) (UniProt Q08722); assay: flow cytometry on human RBCs, APC secondary antibody
[12] = molecular target: T1, Biotinylated CD47 protein (Acrobiosystems) (human, UniProt Q08722 19-139, biotinylated (site not stated)); assay: ELISA on coated biotinylated CD47 protein (1 ug/mL), anti-human Fc HRP
T1 construct: extracellular domain; Bought reagent; also called monomeric CD47-ECD; biotinylated human CD47-ECD protein
Protocol: After coating of antigen, the wells were blocked with PBS/0.05% Tween (PBST) with 1% BSA for 1 hour at RT. […] Between all incubation steps, the wells of the plate were washed with PBST three times. Fluorescence was measured in a TECAN Spectrafluor plate reader.

Molecule | AML Binding (percent of cells in the gate) [1] [%] | phagocytosis: percent of CFSE+ AML cells among CD14+ macrophages [2] [%] | Binding (percent of RBC in the gate) [3] [%] | Binding (percent of RBC in the gate) [4] [%] | EC50 (read off the curve) [5] [ng/mL] | IC50 (read off the curve) [6] [ng/mL] | Binding (percent of CD61+ platelets in the gate) [7] [%] | EC50 (read off the curve) [8] [ng/mL] | EC50 (read off the curve) [9] [ng/mL] | phagocytosis: percent of CFSE+ AML cells among CD14+ macrophages [10] [%] | EC50 (read off the curve) [11] [ng/mL] | EC50 (read off the curve) [12] [ng/mL]
IgG (antibody) | 27.6 | 27 | 0.079 | 0.018 | – | – | – | – | – | – | – | –
Reference antibody 2A1 (produced according to the sequence of CC-90002) | 75.1 | – | – | – | 100 | 200 | 0.41 | 6 | 30 | 36.8 | 60 | –
B1 | – | – | 0.065 | 0.076 | – | – | 0.77 | – | – | – | – | ~8
